# Test results taken from patent US20150104459A1.
# Changes are numbered by the printed parent chain.
# B1: 3245_O19 (antibody, V domains shown)
# VH: EVQLVESGGGLVQPGGSLRLSCTASGLSVSSTYMNWVRQAPGKGLEWVSVFYSETRTYYADSVKGRFTVSRHNSNNTLYLQMNSLRVEDTAVYYCARVQRLSYGMDVWGQGTTVTVSS
# VL: DIQMTQSPSSLSASVGDRVTITCRASQSISTYLNWYQKRPGKAPKLLVYGASTLQSGVPSRFSGSGSGTDFTLTIASLQPEDSATYYCQQTYSIPLFGQGTRLEIK
# B2: 3244_H04 (antibody, V domains shown)
# VH: B1 VH with V87A
# VL: B1 VL with T53S, T85V
# B3: 3241_G23 (antibody, V domains shown)
# VH: QVQLQQSGPGLVKPSQTLSLTCTVSGGPVSGGGYSWNWIRQRPGQGLEWVGFMFHSGSPRYNPTLKSRITISVDTSKNLVSLKLSSVTAADTAVYFCARVGQMDKYYAMDVWGQGTTVTVSS
# VL: DIQMTQSPSSLSSSVGDRVTITCRASQSIGAYVNWYQQKAGKAPQVLIFGASNLQSGVPSRFSGSGSGTDFTLTISSLQPEDFATYFCQQTYSTPITFGQGTRLEIK
# B4: 3259_J21 (antibody, V domains shown)
# VH: QVQLQESGPRVVRPSETLSLTCTVSGGSISSYNWIWIRQPPGKGLEWIGHIYDYGRTFYNSSLQSRPTISVDASKNQLSLRLTSVTASDTAVYYCARPLGILHYYAMDLWGQGTTVTVSS
# VL: DIQMTQSPLSVSVSVGDRVTIACRASQSIDKFLNWYQQKPGKAPKLLIYGASNLHSGAPSRFSASGSGTDFTLTITNIQTEDFATYLCQQSFSVPAFGGGTKVEIK
# B5: 3260_D19 (antibody, V domains shown)
# VH: DMQLVESGGGLVPPGGSLRLSCAASGFSVSDNYINWVRQAPGKGLDWVSVFYSADRTSYADSVKGRFTVSSHDSKNTVYLQMNSLRAEDTAVYYCARVQKSYYGMDVWGQGTTVTVSS
# VL: GIQMTQSPSSLSASVGDRVTITCRASQSISRYLNWYLQKPGKAPKLLISGASSLQSGVPSRFSGTGSGTEFTLTISSLQPEDFATYYCQQTFSIPLFGQGTKVEIK
# B6: 3242_P05 (antibody, V domains shown)
# VH: B5 VH
# VL: B5 VL
# B7: 3136_G05 (antibody, V domains shown)
# VH: QVQLQESGPGLVKPSETLSLTCSVSGGSISSDFWSWIRQPPGKGLEWIGYVYNRGSTKYSPSLKSRVTISADMSKNQFSLNMSSVTAADTAVYYCAKNGRSSTSWGIDVWGKGTTVTVSS
# VL: DIQMTQSPSSLSASVGDRLTITCRASQSISTYLHWYQQKPGKAPKLLIYAASSLQSGVPSRFSGSRSGTDFTLTISSLQPDDFATYYCQQSYSPPLTFGPGTKVDMK
# B8: 3252_C13 (antibody, V domains shown)
# VH: QVQLQESGPGLVKPSETLSLTCTVSGASISSDYWSWIRLPPGKGLEWIGYIYNRGSTKYTPSLKSRVTISLDTAENQFSLRLRSVTAADTAIYYCARHVGGHTYGIDYWGQGTLVTVSS
# VL: DIQMTQSPSSLSASVGDRVTITCRASQSISNYLNWYQHKPGEAPKLLNYAASSLQSGVPSRFSASGSGTDFTLTISSLQPEDFATYYCQQSYNTPITFGQGTRLEIK
# B9: 3255_J06 (antibody, V domains shown)
# VH: B8 VH with I92V
# VL: B8 VL with T74S, S77G, Q100P
# B10: 3362_B11 (antibody, V domains shown)
# VH: QVQLQASGPGLVKPSETLSLTCTVSGDSITSGAYYWTWIRQHPGKGLEWIGYIYYSGNTYYNPSLKSRVTISLDTSKNQFSLKVNSVTAADTAVYYCARAASTSVLGYGMDVWGQGTTVTVSS
# VL: B8 VL with N31R, H38Q, K39E, E42K, N48V, A64G, N93S, I96L
# B11: 3420_I23 (antibody, V domains shown)
# VH: QVQLQESGPGLVKPSETLSVTCKVSGDSISSYSWSWIRQPPGKGLEWVGYLYYSGSTKYNPSLKSRTTISVDTSTNQLSLKLSFVTAADTAVYFCARTGSESTTGYGMDVWGQGTTVTVSS
# VL: B8 VL with N31T, H38Q, E42K, N48I, Q55H, A64G, T72A, N93S, T94P
# B12: 3139_P23 (antibody, V domains shown)
# VH: QVQLQESGPRLVKPSESLSLTCTVSGGSISNSFWGWIRQPPGEGLEWIGYVYNSGNTKYNPSLKSRVTISRDTSKSQLYMKLRSVTAADTAVYYCARHDDASHGYSISWGHGTLVTVSS
# VL: DIQMTQSPSSLSASVGDRVTITCRASQTISTYLNWYQQKSGKAPKLLIYAASGLQSGVPSRFSGSGSGTDFTLTISSLQPEDFATYFCQQSYNTPLTFGQGTKVEIK
# B13: 3248_P18 (antibody, V domains shown)
# VH: QVQLQESGPGLVKPSETLSLTCTVSGGSISAYHWSWIRQPPGKGLEWIGHIFDSGSTYYNPSLKSRVTISLDASKNQLSLRLTSVTASDTAIYYCARPLGSRYYYGMDVWGQGTTVTVSS
# VL: DIQMTQSPSSLSASVGDRVTITCRASQSISRYLNWYQQKPGKAPKLLIYGASTLQNGAPSRFSGSGSGTDFTLTISSLQPEDSATYLCQQSYSVPAFGGGTKVEVK
# B14: 3244_I10 (antibody, V domains shown)
# VH: QVQLQESGPGLLKPSDTLALTCTVSGGSITSDYWSWIRQPPGRGLDWIGFFYNGGSTKYNPSLKSRVTISADTSKNQLSLKLTSVTAADTGVYYCARHDAKFSGSYYVASWGQGTRVTVSS
# VL: DIQMTQSPSSLSASVGDRVTISCRASQSISTYLNWYQQQPGKAPKVLIFGATNLQSGVPSRFSGSGSGTDFTLTISSLQPEDFATYYCQQSYNTPLIFGQGTKLEIK
# B15: 3253_P10 (antibody, V domains shown)
# VH: B14 VH
# VL: B14 VL with F49S, N53D
# B16: 3243_J07 (antibody, V domains shown)
# VH: B14 VH with A100V
# VL: B14 VL with F49S
# Target: M2 protein of influenza A/Hong Kong/483/97 (H5N1) (influenza A virus A/Hong Kong/483/97 (H5N1))
# Further: test concentration or dose not given here.
row,Binder,FACS M2-HK MFI [MFI]
1,B1,919
2,B2,963
3,B3,1700
4,B4,1670
5,B5,846
6,B6,596
7,B7,109
8,B8,449
9,B9,442
10,B10,218
11,B11,112
12,B12,110
13,B13,967
14,B14,434
15,B15,43
16,B16,131
